Entries after “also recorded” stand apart in the source; their conditions may differ. Where two headings read alike, the source gives them in different places. Blank lines part the entries; values can stand above or below the molecule they belong to. Bridges are numbered along the chain shown (N, C = ends). Where no end group is shown, it is not given here.
Experiments:
[1] = Aqueous solubility (observed on sample preparation); type: physicochemical; conditions: aqueous buffer solution; observation in words
Excerpt: For instance, it is well known that substitution of L-Trp to D-Trp increases the population of the native β-turn and of and the analogue half-life in serum. […] For these reasons, in all the CST analogues, L-Trp was replaced by D-Trp in position 7 and Ser11 was replaced by Thr11 to stabilise the β-turn; and either Phe6 or Phe5 were replaced by Msa (analogues 2 and 4; Fig. 1c). In addition to these modifications, terminal residues were acylated as N-octanoyl amides (analogues 3 and 5). The reasoning behind this modification was to increase the hydrophobicity of the analogue and mimic a similar modification to that observed in ghrelin, a neuropeptide produced by endocrine cells in the digestive tract and that shares with CST the ability to interact with the growth hormone secretagogue receptor GHSR-1a[28].
We also characterised the conformational properties of analogues 2, 3 and 4. […] In these cases (Fig. 8a–c), the aromatic residues 5 and 10 align on one side of the molecule, whereas the side chain of residue 6 is located on the other side of the peptide plane. In this conformation, D-Trp7 is close to the pair of aromatic rings 5 and 10, due to the presence of weak NOEs involving the ring protons of D-Trp7 and the methyl protons of Msa5. […]

[2] = target: T1, SSTR2 (Homo sapiens, UniProt P30874); assay: Radio-ligand binding assay, SSTR2
T1 construct: host or cells: CHO-K1
Method: (§1) Graphical and tabular representation of the percentage inhibition of specific binding, as IC50 (nM) binding values for the analogues against the five SSTR1-SSTR5 is represented in Supplementary Fig. 1b and Supplementary Table 1. […] IC50 values were determined by a non-linear, least squares regression analysis using Prism 9 (GraphPad Software, USA), using the Dose-response inhibition (three-parameters) model. […]
(§2) (SSTR1-SSTR5), using a Radio-ligand Binding Assay (Supplementary Figure 1b). Cells were incubated in HEPES buffer pH 7.4 with the new analogues of Cortistatin at 10 different concentrations in a range […]
(§3) specifically bound (performed at Eurofins Panlabs, Inc.). The radioactivity obtained in the absence of SST14 is considered as total binding and that obtained in the presence of 1 µM of SST14 is considered as nonspecific binding. Specific binding was considered as the difference between total and nonspecific.
(§4) Biochemical assay results are presented as the percent inhibition of specific bindin g (% inhib ition) as a […]
(§5) part of each binding assay with the five (SSTR1 -SS T R5 ) . I C50 values were determined by a non-linear, least squares regression analysis using Prism 9 (GraphPad Software, USA), using the Dose -response inhibit ion (t hree-parameters) model.

[3] = target: T2, SSTR3 (Homo sapiens, UniProt P32745); assay: Radio-ligand binding assay, SSTR3
T2 construct: host or cells: CHO-K1
Method: as §1, §2, §3, §4, §5

[4] = target: T3, SSTR1 (Homo sapiens, UniProt P30872); assay: Radio-ligand binding assay, SSTR1
T3 construct: host or cells: CHO-K1
Method: as §1, §2, §3, §4, §5

[5] = target: Somatostatin receptor 4 (SSTR4) (human), P31391; conditions: chains peptide; internal disulfide bond between the two cysteines (cyclic peptide)
[6] = target: Somatostatin receptor 3 (SSTR3) (human), P32745; assay: competition with 125I-Tyr11 SST14
[7] = target: Somatostatin receptor 5 (SSTR5) (human), P35346; conditions: chains peptide; internal disulfide bond between the two cysteines (cyclic peptide)
[8] = target: Somatostatin receptor 1 (SSTR1) (human), P30872; conditions: chains peptide; internal disulfide bond between the two cysteines (cyclic peptide)
[9] = target: Somatostatin receptor 2 (SSTR2) (human), P30874; conditions: chains peptide; internal disulfide bond between the two cysteines (cyclic peptide)
[10] = target: Somatostatin receptor 1 (SSTR1) (human), P30872; assay: competition with 125I-Tyr11 SST14; conditions: D-Trp at position 7, disulfide bridge between the two cysteines
[11] = target: Somatostatin receptor 2 (SSTR2) (human), P30874; assay: competition with 125I-Tyr11 SST14; conditions: D-Trp at position 7, disulfide bridge between the two cysteines
[12] = target: Somatostatin receptor 5 (SSTR5) (human), P35346; assay: competition with 125I-Tyr11 SST14; conditions: D-Trp at position 7, disulfide bridge between the two cysteines
[13] = target: Somatostatin receptor 5 (SSTR5) (human), P35346; conditions: octanoyl moiety at the N-terminus (N-octanoyl amide); L-mesityl alanine (Msa) at position 5; D-Trp at position 7; disulfide bridge between the two cysteines
[14] = target: Somatostatin receptor 3 (SSTR3) (human), P32745; conditions: octanoyl moiety at the N-terminus (N-octanoyl amide); L-mesityl alanine (Msa) at position 5; D-Trp at position 7; disulfide bridge between the two cysteines
[15] = target: Somatostatin receptor 1 (SSTR1) (human), P30872; conditions: octanoyl moiety at the N-terminus (N-octanoyl amide); L-mesityl alanine (Msa) at position 5; D-Trp at position 7; disulfide bridge between the two cysteines
[16] = target: Somatostatin receptor 2 (SSTR2) (human), P30874; conditions: octanoyl moiety at the N-terminus (N-octanoyl amide); L-mesityl alanine (Msa) at position 5; D-Trp at position 7; disulfide bridge between the two cysteines
[17] = target: Somatostatin receptor 5 (SSTR5) (human), P35346; conditions: L-mesityl alanine (2,4,6-trimethylphenylalanine, Msa) in place of Phe6; D-Trp at position 7; disulfide bridge between the two cysteines
[18] = target: Somatostatin receptor 1 (SSTR1) (human), P30872; conditions: L-mesityl alanine (2,4,6-trimethylphenylalanine, Msa) in place of Phe6; D-Trp at position 7; disulfide bridge between the two cysteines
[19] = target: Somatostatin receptor 2 (SSTR2) (human), P30874; conditions: L-mesityl alanine (2,4,6-trimethylphenylalanine, Msa) in place of Phe6; D-Trp at position 7; disulfide bridge between the two cysteines
[20] = target: Somatostatin receptor 3 (SSTR3) (human), P32745; conditions: L-mesityl alanine (2,4,6-trimethylphenylalanine, Msa) in place of Phe6; D-Trp at position 7; disulfide bridge between the two cysteines
[21] = target: Somatostatin receptor 3 (SSTR3) (human), P32745; conditions: N-octanoyl amide on the N-terminal residue; L-mesityl alanine (Msa) at position 6; D-Trp at position 7; disulfide bridge between the two cysteines
[22] = target: Somatostatin receptor 1 (SSTR1) (human), P30872; conditions: N-octanoyl amide on the N-terminal residue; L-mesityl alanine (Msa) at position 6; D-Trp at position 7; disulfide bridge between the two cysteines
[23] = target: Somatostatin receptor 2 (SSTR2) (human), P30874; conditions: N-octanoyl amide on the N-terminal residue; L-mesityl alanine (Msa) at position 6; D-Trp at position 7; disulfide bridge between the two cysteines
[24] = target: Somatostatin receptor 5 (SSTR5) (human), P35346; conditions: N-octanoyl amide on the N-terminal residue; L-mesityl alanine (Msa) at position 6; D-Trp at position 7; disulfide bridge between the two cysteines
[25] = target: Somatostatin receptor 2 (SSTR2) (human), P30874; conditions: L-mesityl alanine (Msa) in place of Phe5; D-Trp at position 7; disulfide bridge between the two cysteines
[26] = target: Somatostatin receptor 3 (SSTR3) (human), P32745; conditions: L-mesityl alanine (Msa) in place of Phe5; D-Trp at position 7; disulfide bridge between the two cysteines
[27] = target: Somatostatin receptor 5 (SSTR5) (human), P35346; conditions: L-mesityl alanine (Msa) in place of Phe5; D-Trp at position 7; disulfide bridge between the two cysteines
[28] = target: Somatostatin receptor 1 (SSTR1) (human), P30872; conditions: L-mesityl alanine (Msa) in place of Phe5; D-Trp at position 7; disulfide bridge between the two cysteines
[29] = octanoyl moiety at the N-terminus (N-octanoyl amide), L-mesityl alanine (Msa) at position 5
[30] = L-mesityl alanine (2,4,6-trimethylphenylalanine, Msa) in place of Phe6
[31] = N-octanoyl amide on the N-terminal residue, L-mesityl alanine (Msa) at position 6
[32] = L-mesityl alanine (Msa) in place of Phe5

Chain of Somatostatin receptor 2 (SSTR2) (human), P30874 (P30874 whole entry): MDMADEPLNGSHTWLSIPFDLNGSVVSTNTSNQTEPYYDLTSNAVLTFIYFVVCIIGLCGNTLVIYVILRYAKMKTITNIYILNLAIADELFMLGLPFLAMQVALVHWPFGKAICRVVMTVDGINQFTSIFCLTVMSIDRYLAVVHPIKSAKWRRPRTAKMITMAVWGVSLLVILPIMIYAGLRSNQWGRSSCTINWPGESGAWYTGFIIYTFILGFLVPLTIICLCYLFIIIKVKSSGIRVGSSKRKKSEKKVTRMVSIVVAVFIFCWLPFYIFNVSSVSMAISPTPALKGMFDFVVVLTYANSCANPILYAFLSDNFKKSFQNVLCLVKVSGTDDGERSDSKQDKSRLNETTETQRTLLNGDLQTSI
Chain of Somatostatin receptor 5 (SSTR5) (human), P35346 (P35346 whole entry): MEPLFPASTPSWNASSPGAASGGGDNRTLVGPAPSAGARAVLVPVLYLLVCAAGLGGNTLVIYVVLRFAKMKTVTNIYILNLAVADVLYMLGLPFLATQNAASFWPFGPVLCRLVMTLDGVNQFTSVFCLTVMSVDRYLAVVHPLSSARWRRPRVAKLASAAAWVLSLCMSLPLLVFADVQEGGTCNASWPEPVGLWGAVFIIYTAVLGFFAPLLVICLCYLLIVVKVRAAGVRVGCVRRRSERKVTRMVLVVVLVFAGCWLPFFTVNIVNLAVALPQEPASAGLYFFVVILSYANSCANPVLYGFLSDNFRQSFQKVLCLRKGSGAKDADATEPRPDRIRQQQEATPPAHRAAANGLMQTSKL
Chain of Somatostatin receptor 1 (SSTR1) (human), P30872 (P30872 whole entry): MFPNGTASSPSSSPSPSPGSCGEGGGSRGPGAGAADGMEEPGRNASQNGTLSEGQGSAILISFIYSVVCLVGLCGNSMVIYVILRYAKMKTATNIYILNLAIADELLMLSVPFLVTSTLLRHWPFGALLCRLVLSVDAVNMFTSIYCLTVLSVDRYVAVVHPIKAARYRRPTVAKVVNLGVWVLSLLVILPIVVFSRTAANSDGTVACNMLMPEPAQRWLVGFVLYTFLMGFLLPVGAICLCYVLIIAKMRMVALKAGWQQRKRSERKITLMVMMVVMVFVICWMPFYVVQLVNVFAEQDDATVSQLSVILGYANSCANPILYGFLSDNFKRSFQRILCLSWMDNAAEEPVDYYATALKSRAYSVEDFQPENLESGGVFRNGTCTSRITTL
Chain of Somatostatin receptor 3 (SSTR3) (human), P32745 (P32745 whole entry): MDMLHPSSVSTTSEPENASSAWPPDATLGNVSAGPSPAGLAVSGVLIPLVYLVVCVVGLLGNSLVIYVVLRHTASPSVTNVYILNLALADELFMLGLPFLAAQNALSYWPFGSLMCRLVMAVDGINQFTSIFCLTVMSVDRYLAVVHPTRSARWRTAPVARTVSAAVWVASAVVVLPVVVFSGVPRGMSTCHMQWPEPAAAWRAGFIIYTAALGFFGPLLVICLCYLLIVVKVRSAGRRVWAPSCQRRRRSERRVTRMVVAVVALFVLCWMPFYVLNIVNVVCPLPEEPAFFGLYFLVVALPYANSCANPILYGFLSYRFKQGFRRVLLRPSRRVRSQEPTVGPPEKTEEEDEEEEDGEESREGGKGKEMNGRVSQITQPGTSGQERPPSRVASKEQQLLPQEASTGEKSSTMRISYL
T1 sequence (P30874 whole entry): as the sequence (P30874 whole entry) above
Chain of Somatostatin receptor 4 (SSTR4) (human), P31391 (P31391 whole entry): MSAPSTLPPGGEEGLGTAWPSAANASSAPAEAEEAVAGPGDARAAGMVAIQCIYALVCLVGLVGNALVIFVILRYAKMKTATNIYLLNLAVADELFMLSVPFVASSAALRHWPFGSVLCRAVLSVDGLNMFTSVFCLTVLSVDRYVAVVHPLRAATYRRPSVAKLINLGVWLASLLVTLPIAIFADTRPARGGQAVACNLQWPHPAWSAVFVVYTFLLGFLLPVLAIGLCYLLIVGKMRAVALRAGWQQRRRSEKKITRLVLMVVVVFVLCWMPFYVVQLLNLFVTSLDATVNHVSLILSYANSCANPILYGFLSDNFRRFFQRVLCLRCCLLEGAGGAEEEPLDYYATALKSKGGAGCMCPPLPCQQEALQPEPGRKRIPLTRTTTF
T3 sequence (P30872 whole entry): as the sequence (P30872 whole entry) above
T2 sequence (P32745 whole entry): as the sequence (P32745 whole entry) above

cleaved bond: Cys13-L-Lys14, major
Molecule: PCKNFFWKTFSSCK

IC50 [5]: 0.2 nM | IC50 ([6]; chains peptide, internal disulfide bond between the two cysteines (cyclic peptide)): 0.3 nM | IC50 [7]: 0.3 nM | IC50 [8]: 1.7 nM | IC50 [9]: 0.09 nM
B1: Cortistatin-14 (r,mCST-14), Q62949 99-112 (peptide)
chain: PCKNFFWKTFSSCK
modifications: disulfide 2-13 (inferred)

IC50 [10, 29]: 47.3 nM | IC50 ([6]; octanoyl moiety at the N-terminus (N-octanoyl amide), L-mesityl alanine (Msa) at position 5, D-Trp at position 7, disulfide bridge between the two cysteines): 5.1 nM | IC50 [11, 29]: 35 nM | IC50 [12, 29]: 1.12 nM | IC50 [13]: 1.12 nM | IC50 [14]: 5.1 nM | IC50 [15]: 47.3 nM | IC50 [16]: 35 nM
B2: Cortistatin analogue 5 (peptide)
chain: PCKNFFWKTFTSCK

Continued, molecule first:

Molecule: CCCCCCCC(=O)N1CCC[C@H]1C(=O)N[C@H]1CSSC[C@@H](C(=O)O)NC(=O)[C@H](CO)NC(=O)[C@H]([C@@H](C)O)NC(=O)[C@H](Cc2ccccc2)NC(=O)[C@H]([C@@H](C)O)NC(=O)[C@H](CCCCN)NC(=O)[C@@H](Cc2c[nH]c3ccccc23)NC(=O)[C@H](Cc2ccccc2)NC(=O)[C@H](Cc2c(C)cc(C)cc2C)NC(=O)[C@H](CC(N)=O)NC(=O)[C@H](CCCCN)NC1=O [analogue 6]
aqueous solubility [1]: reduced its aqueous solubility; also recorded: significant impact on the solubility of the sample

Molecule: Cc1cc(C)c(C[C@@H]2NC(=O)[C@H](Cc3ccccc3)NC(=O)[C@H](CC(N)=O)NC(=O)[C@H](CCCCN)NC(=O)[C@@H](NC(=O)[C@@H]3CCCN3)CSSC[C@@H](C(=O)N[C@@H](CCCCN)C(=O)O)NC(=O)[C@H](CO)NC(=O)[C@H]([C@@H](C)O)NC(=O)[C@H](Cc3ccccc3)NC(=O)[C@H]([C@@H](C)O)NC(=O)[C@H](CCCCN)NC(=O)[C@@H](Cc3c[nH]c4ccccc34)NC2=O)c(C)c1 [A2]
IC50 [2]: 0.42 nM | IC50 [3]: 16 nM | IC50 [4]: 14.1 nM

Molecule: CCCCCCCC(=O)N1CCC[C@H]1C(=O)N[C@H]1CSSC[C@@H](C(=O)N[C@@H](CCCCN)C(=O)O)NC(=O)[C@H](CO)NC(=O)[C@H]([C@@H](C)O)NC(=O)[C@H](Cc2ccccc2)NC(=O)[C@H]([C@@H](C)O)NC(=O)[C@H](CCCCN)NC(=O)[C@@H](Cc2c[nH]c3ccccc23)NC(=O)[C@H](Cc2c(C)cc(C)cc2C)NC(=O)[C@H](Cc2ccccc2)NC(=O)[C@H](CC(N)=O)NC(=O)[C@H](CCCCN)NC1=O [A3]
IC50 [2]: 2.8 nM

B3: Cortistatin analogue 2 (peptide)
chain: PCKNFFWKTFTSCK
IC50 [17]: 33 nM | IC50 [10, 30]: 14.1 nM | IC50 ([6]; L-mesityl alanine (2,4,6-trimethylphenylalanine, Msa) in place of Phe6, D-Trp at position 7, disulfide bridge between the two cysteines): 16 nM | IC50 [11, 30]: 0.42 nM | IC50 [12, 30]: 33 nM | IC50 [18]: 14.1 nM | IC50 [19]: 0.42 nM | IC50 [20]: 16 nM

B4: Cortistatin analogue 3 (peptide)
chain: PCKNFFWKTFTSCK
IC50 [21]: 100 nM | IC50 [22]: > 300 nM | IC50 [23]: 2.8 nM | IC50 [10, 31]: > 300 nM | IC50 ([6]; N-octanoyl amide on the N-terminal residue, L-mesityl alanine (Msa) at position 6, D-Trp at position 7, disulfide bridge between the two cysteines): 100 nM | IC50 [11, 31]: 2.8 nM | IC50 [12, 31]: > 300 nM | IC50 [24]: > 300 nM

B5: Cortistatin analogue 4 (peptide)
chain: PCKNFFWKTFTSCK
IC50 [25]: 9.8 nM | IC50 [26]: 1.8 nM | IC50 [10, 32]: 14.7 nM | IC50 ([6]; L-mesityl alanine (Msa) in place of Phe5, D-Trp at position 7, disulfide bridge between the two cysteines): 1.8 nM | IC50 [11, 32]: 9.8 nM | IC50 [12, 32]: 4 nM | IC50 [27]: 4 nM | IC50 [28]: 14.7 nM
